B1: atToc33-His (G-domain of atToc33, His-tagged) (domain or fragment, Arabidopsis thaliana, UniProt O23680 1-251, looked up)
chain: MGSLVREWVGFQQFPAATQEKLIEFFGKLKQKDMNSMTVLVLGKGGVGKSSTVNSLIGEQVVRVSPFQAEGLRPVMVSRTMGGFTINIIDTPGLVEAGYVNHQALELIKGFLVNRTIDVLLYVDRLDVYRVDELDKQVVIAITQTFGKEIWCKTLLVLTHAQFSPPDELSYETFSSKRSDSLLKTIRAGSKMRKQEFEDSAIAVVYAENSGRCSKNDKDEKALPNGEAWIPNLVKAITDVATNQRKAIHVD
B2: atToc33S/E-His (phospho-mimicking mutant of the atToc33 G-domain) (domain or fragment, Arabidopsis thaliana, UniProt O23680 1-251, looked up)
chain: MGSLVREWVGFQQFPAATQEKLIEFFGKLKQKDMNSMTVLVLGKGGVGKSSTVNSLIGEQVVRVSPFQAEGLRPVMVSRTMGGFTINIIDTPGLVEAGYVNHQALELIKGFLVNRTIDVLLYVDRLDVYRVDELDKQVVIAITQTFGKEIWCKTLLVLTHAQFSPPDELSYETFSSKRSDELLKTIRAGSKMRKQEFEDSAIAVVYAENSGRCSKNDKDEKALPNGEAWIPNLVKAITDVATNQRKAIHVD

Biological target: the molecule itself
Assay: SEC

| Protein | Kd | stoichiometry N | fold change of the dissociation constant against atToc33 |
| --- | --- | --- | --- |
| B1 | 400 µM | 2 | – |
| B2 | – | 2 | ~10 fold |
